According to US20170015742A1 (published 2017):

What was measured:
[1] = biological target: recombinant human VEGF165 (human, UniProt P15692 207-395); test: cell-based or functional assay
[2] = biological target: recombinant human PDGF-BB (human, UniProt P01127 82-190); test: cell-based or functional assay
Chain of recombinant human PDGF-BB (P01127 82-190 limits assumed): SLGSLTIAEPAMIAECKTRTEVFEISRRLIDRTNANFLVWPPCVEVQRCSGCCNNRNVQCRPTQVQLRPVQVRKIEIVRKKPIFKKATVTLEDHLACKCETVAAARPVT

Chain of recombinant human VEGF165 (P15692 other isoform, or with tags, fused parts or gaps limits assumed): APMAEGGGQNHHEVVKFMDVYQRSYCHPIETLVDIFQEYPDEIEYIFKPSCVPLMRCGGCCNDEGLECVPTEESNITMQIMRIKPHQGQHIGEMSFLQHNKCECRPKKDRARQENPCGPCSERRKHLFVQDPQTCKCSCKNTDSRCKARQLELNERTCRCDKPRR

| Binder | Potency IC50 (nM), HMVEC-d hVEGF165 (proliferation) [1] [nM] | Potency IC50 (nM), NIH-3T3 hPDGF-BB (proliferation) [2] [nM] |
| --- | --- | --- |
| CL-34565_GS_3E2.1 (PR-1613185) (bispecific antibody, human IgG1, kappa, L234A L235A) heavy: EVQLVQSGSELKKPGASVKVSCKASGYTFTDYGMYWVRQAPGQGLEWMGWIDTETGDPTYADDFKGRFVFSLDTSVSTAYLQISSLKAEDTAVYYCARTNYYYRNYMFYFDYWGQGTMVTVSSGGGGSGGGGSEVQLVQSGAEVKKPGSSVKVSCKASGYTFTESYMYWVKQAPGQGLELIGRIDPEDGSTDYVEKFKNKATLTADKSTSTAYMELSSLRSEDTAVYFCARFGARSYFYPMDAWGQGTTVTVSSASTKGPSVFPLAPSSKSTSGGTAALGCLVKDYFPEPVTVSWNSGALTSGVHTFPAVLQSSGLYSLSSVVTVPSSSLGTQTYICNVNHKPSNTKVDKKVEPKSCDKTHTCPPCPAPEAAGGPSVFLFPPKPKDTLMISRTPEVTCVVVDVSHEDPEVKFNWYVDGVEVHNAKTKPREEQYNSTYRVVSVLTVLHQDWLNGKEYKCKVSNKALPAPIEKTISKAKGQPREPQVYTLPPSREEMTKNQVSLTCLVKGFYPSDIAVEWESNGQPENNYKTTPPVLDSDGSFFLYSKLTVDKSRWQQGNVFSCSVMHEALHNAYTQKSLSLSPGK light: EIVLTQSPATLSLSPGERATLFCRASQSVSNHMHWYQQKPGQAPRLLIYGASILESGVPARFSGSGSGTDFTLTISSLEPEDFAVYYCQQSWYDPITFGQGTKLEIKGGSGGGGSGGETVLTQSPATLSLSPGERATLSCRASESVSTLMHWYQQKPGQQPRLLIYGASNLESGVPARFSGSGSGTDFTLTISSLEPEDFAVYFCQQSWNDPWTFGGGTKVEIKRTVAAPSVFIFPPSDEQLKSGTASVVCLLNNFYPREAKVQWKVDNALQSGNSQESVTEQDSKDSTYSLSSTLTLSKADYEKHKVYACEVTHQGLSSPVTKSFNRGEC | 0.053 | 6 |
| 9E8.4_GS_4G8.5 (PR-1613188) (bispecific antibody, human IgG1, kappa, L234A L235A) heavy: EVTLRESGPALVKPTQTLTLTCTFSGFSLSTYGMGVGWIRQPPGKALEWLANIWWDDDKYYNPSLKNRLTISKDTSKNQVVLTMTNMDPVDTATYYCARIESIGTTYSFDYWGQGTMVTVSSGGGGSGGGGSEIQLVQSGSELKKPGASVKVSCKASGYTFTNYGMYWVRQAPGQGLEYMGWINTETGKPTYADDFKGRFVFSLDTSVSTAYLQISSLKAEDTAVYFCARTNYYYRSYIFYFDYWGQGTMVTVSSASTKGPSVFPLAPSSKSTSGGTAALGCLVKDYFPEPVTVSWNSGALTSGVHTFPAVLQSSGLYSLSSVVTVPSSSLGTQTYICNVNHKPSNTKVDKKVEPKSCDKTHTCPPCPAPEAAGGPSVFLFPPKPKDTLMISRTPEVTCVVVDVSHEDPEVKFNWYVDGVEVHNAKTKPREEQYNSTYRVVSVLTVLHQDWLNGKEYKCKVSNKALPAPIEKTISKAKGQPREPQVYTLPPSREEMTKNQVSLTCLVKGFYPSDIAVEWESNGQPENNYKTTPPVLDSDGSFFLYSKLTVDKSRWQQGNVFSCSVMHEALHNAYTQKSLSLSPGK light: EFVLTQSPGTLSLSPGERATLSCERSSGDIGDSYVSWYQQKPGQAPRLVIYADDQRPSGIPDRFSGSGSGTDFTLTISRLEPEDFAVYYCQSYDINIDIVFGGGTKVEIKGGSGGGGSGGATQLTQSPSLSASVGDRVTITCRASESVSTHMHWYQQKPGKQPKLLIYGASNLESGVPSRFSGSGSGTDFTLTISSLQPEDFATYFCQQSWNDPFTFGQGTKLEIKRTVAAPSVFIFPPSDEQLKSGTASVVCLLNNFYPREAKVQWKVDNALQSGNSQESVTEQDSKDSTYSLSSTLTLSKADYEKHKVYACEVTHQGLSSPVTKSFNRGEC | 0.354 | 0.108 |
| CL-33675_GS_CL-34565 (PR-1613186) (bispecific antibody, human IgG1, kappa, L234A L235A) heavy: EVTLRESGPALVKPTQTLTLTCTFSGFSLSTYGMGVGWIRQPPGKALEWLANIWWDDDKYYNPSLKNRLTISKDTSKNQVVLTMTNMDPVDTATYYCARIESSGPKYSFDYWGQGTMVTVSSGGGGSGGGGSEVQLVQSGSELKKPGASVKVSCKASGYTFTDYGMYWVRQAPGQGLEWMGWIDTETGDPTYADDFKGRFVFSLDTSVSTAYLQISSLKAEDTAVYYCARTNYYYRNYMFYFDYWGQGTMVTVSSASTKGPSVFPLAPSSKSTSGGTAALGCLVKDYFPEPVTVSWNSGALTSGVHTFPAVLQSSGLYSLSSVVTVPSSSLGTQTYICNVNHKPSNTKVDKKVEPKSCDKTHTCPPCPAPEAAGGPSVFLFPPKPKDTLMISRTPEVTCVVVDVSHEDPEVKFNWYVDGVEVHNAKTKPREEQYNSTYRVVSVLTVLHQDWLNGKEYKCKVSNKALPAPIEKTISKAKGQPREPQVYTLPPSREEMTKNQVSLTCLVKGFYPSDIAVEWESNGQPENNYKTTPPVLDSDGSFFLYSKLTVDKSRWQQGNVFSCSVMHEALHNAYTQKSLSLSPGK light: EIVLTQSPGTLSLSPGERATLSCRASSGSIWYSFVSWYQQKPGQAPRLLIYADDQRASGIPDRFSGSGSGTDFTLTISRLEPEDFAVYYCQSYGINIDVVFGGGTKVEIKGGSGGGGSGGEIVLTQSPATLSLSPGERATLFCRASQSVSNHMHWYQQKPGQAPRLLIYGASILESGVPARFSGSGSGTDFTLTISSLEPEDFAVYYCQQSWYDPITFGQGTKLEIKRTVAAPSVFIFPPSDEQLKSGTASVVCLLNNFYPREAKVQWKVDNALQSGNSQESVTEQDSKDSTYSLSSTLTLSKADYEKHKVYACEVTHQGLSSPVTKSFNRGEC | 0.05 | 0.043 |
| 9E8.4_GS_CL-34565 (PR-1613187) (bispecific antibody, human IgG1, kappa, L234A L235A) heavy: EVTLRESGPALVKPTQTLTLTCTFSGFSLSTYGMGVGWIRQPPGKALEWLANIWWDDDKYYNPSLKNRLTISKDTSKNQVVLTMTNMDPVDTATYYCARIESIGTTYSFDYWGQGTMVTVSSGGGGSGGGGSEVQLVQSGSELKKPGASVKVSCKASGYTFTDYGMYWVRQAPGQGLEWMGWIDTETGDPTYADDFKGRFVFSLDTSVSTAYLQISSLKAEDTAVYYCARTNYYYRNYMFYFDYWGQGTMVTVSSASTKGPSVFPLAPSSKSTSGGTAALGCLVKDYFPEPVTVSWNSGALTSGVHTFPAVLQSSGLYSLSSVVTVPSSSLGTQTYICNVNHKPSNTKVDKKVEPKSCDKTHTCPPCPAPEAAGGPSVFLFPPKPKDTLMISRTPEVTCVVVDVSHEDPEVKFNWYVDGVEVHNAKTKPREEQYNSTYRVVSVLTVLHQDWLNGKEYKCKVSNKALPAPIEKTISKAKGQPREPQVYTLPPSREEMTKNQVSLTCLVKGFYPSDIAVEWESNGQPENNYKTTPPVLDSDGSFFLYSKLTVDKSRWQQGNVFSCSVMHEALHNAYTQKSLSLSPGK light: EFVLTQSPGTLSLSPGERATLSCERSSGDIGDSYVSWYQQKPGQAPRLVIYADDQRPSGIPDRFSGSGSGTDFTLTISRLEPEDFAVYYCQSYDINIDIVFGGGTKVEIKGGSGGGGSGGEIVLTQSPATLSLSPGERATLFCRASQSVSNHMHWYQQKPGQAPRLLIYGASILESGVPARFSGSGSGTDFTLTISSLEPEDFAVYYCQQSWYDPITFGQGTKLEIKRTVAAPSVFIFPPSDEQLKSGTASVVCLLNNFYPREAKVQWKVDNALQSGNSQESVTEQDSKDSTYSLSSTLTLSKADYEKHKVYACEVTHQGLSSPVTKSFNRGEC | 0.058 | 0.134 |

Other lines, results leading:

| Potency IC50 (nM), HMVEC-d hVEGF165 (proliferation) [1] [nM] | Potency IC50 (nM), NIH-3T3 hPDGF-BB (proliferation) [2] [nM] | Binder |
| --- | --- | --- |
| 0.059 | 0.052 | CL-34565_GS_CL-33675 (PR-1613183) (bispecific antibody, human IgG1, kappa, L234A L235A) heavy: EVQLVQSGSELKKPGASVKVSCKASGYTFTDYGMYWVRQAPGQGLEWMGWIDTETGDPTYADDFKGRFVFSLDTSVSTAYLQISSLKAEDTAVYYCARTNYYYRNYMFYFDYWGQGTMVTVSSGGGGSGGGGSEVTLRESGPALVKPTQTLTLTCTFSGFSLSTYGMGVGWIRQPPGKALEWLANIWWDDDKYYNPSLKNRLTISKDTSKNQVVLTMTNMDPVDTATYYCARIESSGPKYSFDYWGQGTMVTVSSASTKGPSVFPLAPSSKSTSGGTAALGCLVKDYFPEPVTVSWNSGALTSGVHTFPAVLQSSGLYSLSSVVTVPSSSLGTQTYICNVNHKPSNTKVDKKVEPKSCDKTHTCPPCPAPEAAGGPSVFLFPPKPKDTLMISRTPEVTCVVVDVSHEDPEVKFNWYVDGVEVHNAKTKPREEQYNSTYRVVSVLTVLHQDWLNGKEYKCKVSNKALPAPIEKTISKAKGQPREPQVYTLPPSREEMTKNQVSLTCLVKGFYPSDIAVEWESNGQPENNYKTTPPVLDSDGSFFLYSKLTVDKSRWQQGNVFSCSVMHEALHNAYTQKSLSLSPGK light: EIVLTQSPATLSLSPGERATLFCRASQSVSNHMHWYQQKPGQAPRLLIYGASILESGVPARFSGSGSGTDFTLTISSLEPEDFAVYYCQQSWYDPITFGQGTKLEIKGGSGGGGSGGEIVLTQSPGTLSLSPGERATLSCRASSGSIWYSFVSWYQQKPGQAPRLLIYADDQRASGIPDRFSGSGSGTDFTLTISRLEPEDFAVYYCQSYGINIDVVFGGGTKVEIKRTVAAPSVFIFPPSDEQLKSGTASVVCLLNNFYPREAKVQWKVDNALQSGNSQESVTEQDSKDSTYSLSSTLTLSKADYEKHKVYACEVTHQGLSSPVTKSFNRGEC |
| 0.065 | 0.323 | CL-34565_GS_9E8.4 (PR-1613184) (bispecific antibody, human IgG1, kappa, L234A L235A) heavy: EVQLVQSGSELKKPGASVKVSCKASGYTFTDYGMYWVRQAPGQGLEWMGWIDTETGDPTYADDFKGRFVFSLDTSVSTAYLQISSLKAEDTAVYYCARTNYYYRNYMFYFDYWGQGTMVTVSSGGGGSGGGGSEVTLRESGPALVKPTQTLTLTCTFSGFSLSTYGMGVGWIRQPPGKALEWLANIWWDDDKYYNPSLKNRLTISKDTSKNQVVLTMTNMDPVDTATYYCARIESIGTTYSFDYWGQGTMVTVSSASTKGPSVFPLAPSSKSTSGGTAALGCLVKDYFPEPVTVSWNSGALTSGVHTFPAVLQSSGLYSLSSVVTVPSSSLGTQTYICNVNHKPSNTKVDKKVEPKSCDKTHTCPPCPAPEAAGGPSVFLFPPKPKDTLMISRTPEVTCVVVDVSHEDPEVKFNWYVDGVEVHNAKTKPREEQYNSTYRVVSVLTVLHQDWLNGKEYKCKVSNKALPAPIEKTISKAKGQPREPQVYTLPPSREEMTKNQVSLTCLVKGFYPSDIAVEWESNGQPENNYKTTPPVLDSDGSFFLYSKLTVDKSRWQQGNVFSCSVMHEALHNAYTQKSLSLSPGK light: EIVLTQSPATLSLSPGERATLFCRASQSVSNHMHWYQQKPGQAPRLLIYGASILESGVPARFSGSGSGTDFTLTISSLEPEDFAVYYCQQSWYDPITFGQGTKLEIKGGSGGGGSGGEFVLTQSPGTLSLSPGERATLSCERSSGDIGDSYVSWYQQKPGQAPRLVIYADDQRPSGIPDRFSGSGSGTDFTLTISRLEPEDFAVYYCQSYDINIDIVFGGGTKVEIKRTVAAPSVFIFPPSDEQLKSGTASVVCLLNNFYPREAKVQWKVDNALQSGNSQESVTEQDSKDSTYSLSSTLTLSKADYEKHKVYACEVTHQGLSSPVTKSFNRGEC |
